Reference: publication PMC6044281, “Cooperative Domain Formation by Homologous Motifs in HOIL-1L and SHARPIN Plays A Crucial Role in LUBAC Stabilization” (Cell reports, 2018)

B1: mSHARPIN_(163–301) [mouse] / GST-mHOIP_(466–630) [mouse] (parent)
chain 1: SSGNFKKEELATRLSQAIAGGDEKAAAQVAAVLAQHHVALNVQLMEAWFPPGPIRLQVTVEDATSVLSSSSSAHVSLKIHPHCSIAALQDQVFSEFGFPPAVQRWVIGRCLCMPERSLASYGVSQDGDPAFLYLLSAPR
chain 2: SCGDPEKQRQDKMRKEGLQLVSMIQEGETAGASPEEVFSALQYSGTEVPLQWLRSELSYVLEMVAELAGQQDPELGAFSCQEARKAWLDRHGNLDEAVEECVRARRRKVHELQSLGFGPKEGSLQALFQHGGDVARALTELQRQRLEPFHQRLWDRDPEPTPCWD

Variants of: B1
Test: SPR
Conditions: with GST-mHOIP_(466–630) [mouse]; response read at end of injection (about 185 s); GST-mHOIP D-UBA WT immobilized with anti-GST antibody; parent: 20; read off a plot

response | Variant
-20 RU | chain 1 L14A I18A
